Patent US12024555 (VANDERBILT UNIVERSITY, dated 2024)

Tests used:
[1] = target: T1, recombinant WNV E protein containing only DIII (West Nile virus, UniProt Q9Q6P4 586-694); assay: ELISA on plate-coated recombinant DIII
T1 construct: domain: DIII
T1 sequence: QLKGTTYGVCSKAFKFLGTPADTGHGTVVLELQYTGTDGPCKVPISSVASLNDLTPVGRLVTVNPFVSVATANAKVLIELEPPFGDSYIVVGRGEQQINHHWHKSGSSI

[2] = target: T2, West Nile virus E protein T64Q variant on RVPs (West Nile virus (WNV1 NY99 strain), UniProt Q9Q6P4 291-791, T64Q); assay: cell-based or functional assay
T2 sequence (looked up): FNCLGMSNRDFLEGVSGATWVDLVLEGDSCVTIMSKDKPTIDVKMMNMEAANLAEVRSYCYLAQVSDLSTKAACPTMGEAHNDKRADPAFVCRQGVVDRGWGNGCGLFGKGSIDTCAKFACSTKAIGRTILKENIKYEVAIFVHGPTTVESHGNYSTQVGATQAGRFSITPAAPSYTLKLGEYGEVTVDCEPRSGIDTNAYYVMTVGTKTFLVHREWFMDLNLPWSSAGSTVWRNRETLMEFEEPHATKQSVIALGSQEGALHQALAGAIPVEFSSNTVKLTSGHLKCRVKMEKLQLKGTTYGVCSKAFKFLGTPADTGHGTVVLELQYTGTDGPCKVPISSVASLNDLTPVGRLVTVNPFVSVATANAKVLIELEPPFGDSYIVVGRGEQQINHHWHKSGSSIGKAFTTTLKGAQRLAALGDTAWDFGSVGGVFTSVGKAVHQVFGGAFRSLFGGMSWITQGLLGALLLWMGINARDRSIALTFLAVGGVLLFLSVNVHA

[3] = target: T3, West Nile virus E protein T208K variant on RVPs (West Nile virus (WNV1 NY99 strain), UniProt Q9Q6P4 291-791, T208K); assay: cell-based or functional assay
T3 sequence (looked up): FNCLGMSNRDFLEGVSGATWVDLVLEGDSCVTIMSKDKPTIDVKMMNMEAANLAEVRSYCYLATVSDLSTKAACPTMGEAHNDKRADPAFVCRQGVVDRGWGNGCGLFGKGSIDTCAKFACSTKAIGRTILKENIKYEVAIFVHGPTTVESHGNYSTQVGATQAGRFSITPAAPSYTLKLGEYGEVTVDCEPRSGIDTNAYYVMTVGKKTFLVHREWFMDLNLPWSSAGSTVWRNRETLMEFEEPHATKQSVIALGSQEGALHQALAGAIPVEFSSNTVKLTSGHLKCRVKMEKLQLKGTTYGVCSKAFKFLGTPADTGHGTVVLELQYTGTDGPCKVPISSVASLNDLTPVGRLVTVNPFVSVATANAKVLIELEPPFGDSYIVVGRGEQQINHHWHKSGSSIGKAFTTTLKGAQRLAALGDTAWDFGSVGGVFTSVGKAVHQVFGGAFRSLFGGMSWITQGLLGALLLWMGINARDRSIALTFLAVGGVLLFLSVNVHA

Binder | binding result [1] | fold increase in neutralization IC50 relative to WT RVPs [2] | fold increase in neutralization IC50 relative to WT RVPs [3]
human mAb WNV-62 (antibody, V domains shown) VH: QVQLVESGGGVVQPGRSLRLSCAASGFTFSSYGMHWVRQAPGKGLEWVAVMSYDGSKIYYADSVKGRFTISRDNSKNTLYLQMDSLRAEDTAVYYCAKVGYYDGSRYDLIAEYFQYWGQGTLVTVSS VL: QSVLTQPPSVSGAAGQRVTISCTGSSSNIGAGYDVHWYQQLPGTAPKLLIYGNNNRPSGVPDRFSGSKSDTSASLAITGLRPEDELDYYCQSYDNRLSAYVFGTGTKVTVL | no binding |  | 
human mAb WNV-57 (antibody, V domains shown) VH: QVQLVESGGGVVQPGRSLRLACAASGFTLSDFAIHWVRQAPGKGLEWVAIISYDGNIKYYADSVKGRFTISSDNSKNTVYLQMNSLRAEDTAMYYCARDPDVVETAHDAFDIWGQGTLVTVSS VL: DILMTQSPSSLSASVGDRVTITCRASQNIKNYLNWYQQKPGKAPKLLIYAASSLQSLVPSRFSGSGSGTDFTLTISSLQPEDFATYYCQQSYSSFRTFGQGTKVEVK | no binding |  | 
human mAb WNV-10 (antibody, V domains shown) VH: QVQLVESGGGVVQPGRSLRLSCAASGFTFSSHAMHWVRQAPGKGLEWVAVISYDIINEYYADSVKGRFTISRDNSKNTLYLQMNSLRAEDTAVYYCARDGYFPNSSGEGFFDYWGQGTLVTVSS VL: EIVMTQSPATLSVSPGERATLSCRASQSLSNNLAWYQQKPGQAPRLLIYGASTRATGIPARFSGSGSGTQFTLTISSLQSEDIAVYYCQQFNNWPWTFGQGTKVEIK | no binding |  | 
human mAb WNV-86 (antibody, V domains shown) VH: QVQLVQSGGGLVQPGRSLRLCCAASGFSFDDFAMHWVRQAPGKGLEWVSGINWNSGHIGYADSVKGRFTISRDNAKNSLCLQMNSLRPEDTALYYCAKDRAYYFGSGTSGGAFDVWGQGTLVTVSS VL: DIVMTQSPSSLSASVGDRVTITCRASQNIISYLNWYQQKPGKAPKLLIYDASSLQSGVPSRFSGSGSGTDFTLTISSLQPEDFATYYCQRSFSTPLTFGGGTKVEIK |  | 88 fold | 13 fold
